Test results taken from IntAct's records for PubMed 8174709.

B1: Ferredoxin--NADP reductase, chloroplastic (Spinacia oleracea (Spinach)), P00455 (parent)
chain: MTTAVTAAVSFPSTKTTSLSARSSSVISPDKISYKKVPLYYRNVSATGKMGPIRAQIASDVEAPPPAPAKVEKHSKKMEEGITVNKFKPKTPYVGRCLLNTKITGDDAPGETWHMVFSHEGEIPYREGQSVGVIPDGEDKNGKPHKLRLYSIASSALGDFGDAKSVSLCVKRLIYTNDAGETIKGVCSNFLCDLKPGAEVKLTGPVGKEMLMPKDPNATIIMLGTGTGIAPFRSFLWKMFFEKHDDYKFNGLAWLFLGVPTSSSLLYKEEFEKMKEKAPDNFRLDFAVSREQTNEKGEKMYIQTRMAQYAVELWEMLKKDNTYFYMCGLKGMEKGIDDIMVSLAAAEGIDWIEYKRQLKKAEQWNVEVY

Variants of: B1
Details: with fer1_spiol PETF

effect of a mutation on the interaction | Variant
decreasing interaction | K88Q
